Source: the RNAGym collection of RNA variant scans (doi:10.1073/pnas.2313332121)

B1: TPR t1 (parent)
chain: GACCAAUCUGCCCUCAGAGCUCGAGAACAUCUUCGGAUGCAGAGGAGGCAGGCUUCGGUGGCGCGAUAGCGCCAACGUCCUCAACCUCCAAUGCAUCCCACCACAUGAUGAUGCCUGAAGAGCCUUGGUUUUUUG

Variants of: B1
Assay: polymerase ribozyme fitness, log enrichment relative to wild type (log ratio); higher = more active; in vitro selection for triplet polymerase activity
In short: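 For each subunit of a heterodimeric triplet polymerase ribozyme, a mutant library was built by PCR and transcribed, then taken through a single in vitro selection round in triplicate. Selection involved annealing to a biotinylated primer, the partner subunit and triplets, incubation frozen at −7 °C, gel excision of extended constructs, capture on streptavidin beads and RT-PCR. Genotypes were retained after Illumina sequencing of inputs and outputs only with ≥10 input reads and ≥1 read in each output. Fitness is defined as the logarithm of a genotype's enrichment relative to wild-type enrichment, using inverse-variance-weighted averages across replicates, with the logarithm taken to base 2.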

Compared with GACCAAUUUGCCCUCAGAGCUCGAGAACAUCUUCGGAUGCAGAGGAGGCAGGCUUCGGUGGCGCGAUAGCGCCAACGUCCUCAACCUCCAAUGCAACCCACCACAUGAUGAUGCCUGAAGAGCCUUGGUUUUUUG, GACCAAUUUGCCCUCAGAGCUCGAGAACAUCUUCGGAUGCAGAGGAGGCAGGCUUCGGUGGCGCGAUAGCGCCAACGUCCACAGCCUCCAAUGCAUCCCACCACAUGAUGAUGCCUGAAGAGCCUUGGUUUUUUG is lower in “polymerase ribozyme fitness (log ratio)” value: -0.0448 for the first, -0.331 for the second.

Going from GACCAAUUUGCCCUCAGAGCUCGAGAACAUCUUCGGACGCAGAGGAGGCAGGCUUCGGUGGCGCGAUAGCGCCAACGUCCUCAACCUCCAAUGCAUCCCACCACAUGAUGAUGCAUGAAGAGCCUUGGUUUUUUG to GACCAAUUUGCCCUCAGAGCUCGAGAACAUCUUCGGAUGCAGAGGAGGCAGGCUUCGGUGGCGCGAUAGCGCCAACGUCCUCAACCUCCAAUGCAUCCCACCACAUGAUGAAGCCUGAAGAGCCUUGGUUUUUUG, the “polymerase ribozyme fitness (log ratio)” value rises from 0.431 to 1.33.

First: GACCAAUUUGCCCUCAGAGCUCGAGAACAUCUUCGGAUGCAGAGGAGGCAGGCAUCGGUGGCGCGAUAGCGCCAACGUCCUCAACCUCCAAUGCAUCCCACCACAUGAUGAUGCCUGAAGAGCCUUGGUUUUUUG
Second: GACCAAUUUGCCCUCAGAGCUCGAGAACAUCUUCGGAUGCAGAGGAGGCAGGCUUCGGACGCGCGAUAGCGCCAACGUCCUCAACCUCCAAUGCAUCCCACCACAUGAUGAUGCCUUAAGAGCCUUGGUUCUUUG
The “polymerase ribozyme fitness (log ratio)” value of the first is higher: 0.528 for the first, -0.987 for the second.

Going from GACCAAUCAGCCCUCAGAGCUCGAGUACAUCUUCGGAUGCAGAGGAGGCAGGCUUCGGUGGCGCGAUAGCGCCAACGUCCUCAACCUCCAAUGCAUCCCAGCACAUGAUGAUGCCUGAAGAGCCUUGGUUUUUUG to GACCAAUUCGCUCUCAAAACUCGAGAACAUCUUCGGAUGCAGAUGAGGCAGGCUUCGGUGGCGCGAUAGCGCCAACGUCCUCAACCUCCAAUGCAUCCCACCACAUGAUGAUGGCUGAAGAGCCUUGGUUUUUUG, the “polymerase ribozyme fitness (log ratio)” value falls from -4.48 to -5.67.

First: GACCAAUUUGCCCUCAGAGCUCGAGAACAUCUUCGGAAGCAGAGGAGGCAGGCUUCGGUGGCGCGAUAGUGCCAACGUCCUCAACCUCCAAUGCAUCCCACCACAUGAUGAUGCCUGAAGAGCCUUGGUUUUUUG
Second: GACCAAUUUGCCCUCAGAGCUCGAGAACAUCUUCGGAUGCAGAGGAGGCAGGCUUCGGUGGCGCGAUAGCGCCAACGUCCUCAACCUCCAAUGCAUCCCACCACAUGAAGAUGCCUGAAGAGCCUUGGUUUUUUG
The “polymerase ribozyme fitness (log ratio)” value of the first is higher: -1.62 for the first, -5.29 for the second.

First: GACCAAUUUGCCCUCAGAGCUCGAGAACAUCUUCGGAUGCAGAGGAGGCAGGCUUCGGUGGCGCGAUAGCGCCAACGUCCUCAACCUCCAAUGCAUCCCACCACAUGAUGAUGCCUGAAGAGCCUUGGUCUUUUG
Second: GACCAAUCAGCCCUCAGAGCUCGAGAGCAUCUUCGGAUGCAGAGGAGGCAGGCUUCGGUGGCGCGAUAGCGUCAACGUCCUCAACCUCCAAUGCAUCCCACCACAUGAUGAUGUCUGAAGAGCCUUGGUUUUUUG
The “polymerase ribozyme fitness (log ratio)” value of the first is higher: 0.805 for the first, -1.39 for the second.

Compared with GACCAAUUUGCCCUCAGAGCUCGAGAACAUCUUCGGAUGCAGAGGAGGCAGGCUUCGGUGGCGCGAUAGCGCCAACGACCUCAACCUCCAAUGCAUCCCACCACAUGAUGAUGCCUGAAGAGCCUUGGUUUUUUG, GACCAAUUUGCCCUCAGAGCUCGAGAACAUCUUCGGAUGCAGAGGAGGCAGGCUUCGGUGGCGCGAUAGCGCCAACGCCCUCAACCUCCAAUGCAUCCCACCACAUGAUGAUGCCUGAAGAGCCUUGGUUUUUUG is higher in “polymerase ribozyme fitness (log ratio)” value: 0.175 for the first, 0.388 for the second.

Going from GACCAAUUCGCUCUCAGAGCUCGAGAACAUCUUCGGAUGCAGAGGAGGCAGGCUUCGGUGGCGCGAUAGCUCCAACGUCCUCAACCUCCAAUGCAUCCCACCACAUGAUGAUGCCUGAAGAGCCUUGGUUUAUUG to GACCAAUUUGCCCUCAGAGCUCGAGAACAUCUUCGGAUGCAGAGGAGGCAGGCUUCGGUGGCGCGAUAGCGCCAACGUCCUCAACCUCCAAUGCAUCCCACCACAAGAUGAUGCCUGAAGAGCCUUUGUUUUUUG, the “polymerase ribozyme fitness (log ratio)” value falls from 0.729 to 0.137.

Going from GACCAAUUUGCCCUCAGAGCUCGAGAACAUCUUCGGAUGCAGAGGAGGCAGGCUGCGGUGGCGCGAUAGCGCCAACUUCCUCAACCUCCAAUGCAUCCCACCACAUGAUGAUCCCUGAAGAGCCUUGGUUUUUUG to GACCAAUUUGCCCACAGAGCUCGAGAACAUCUUCGAAUGCAGAGGAGGCAGGCUUCGGUGGCGCGAUAGCGUCAACGUCCUCAACCUCCAAUGCAUCCCACCACAUGAUGAUGCCUGAAGAGCCUUGGUUUUUUG, the “polymerase ribozyme fitness (log ratio)” value falls from -1.83 to -2.09.

Going from GACCAAUCAGCCCUCAGAGCUCGAGAGCAUCUUCGGAUGCAGAGGAGGCAGGCUUCGGUGGCGCGAUAGCGCCAACGUCCUCAACCUCCAAUGCAUCCCACCACAUGAUGAUGUCUGAAGAGCCUUGGUUUUUUG to GACCAAUUUGCCCCCAGAGCUCGAGAACAUCUUCGGAUGCAGAGGAGGCAGGCUUCGGUGGCGCGAUAGCGCCAUCGUCCUCAACCUCCAAUGCAUCCCACCACAUGAUGAUGCCUGAAAAGCCUUGGUUUUUUG, the “polymerase ribozyme fitness (log ratio)” value rises from -1.28 to 1.44.

First: GACCAAUCAGCCCUCAGAGCUCGAGAACAUCUUCGGAUGCAGAGGAGGCAGGCUUCGGUGGCGCGAUAGCGCCAACGUCCUCAACCUCCAAUGCAUCCCACCACAUGAUGAUGCCUGAAGAGCCUUGGUUUUUUG
Second: GACCAAUCAGCCCUCGGUGCUCGAGAACAUCUUCGGAUGCAGGGGAGGCAGGCUUCGGUGGCGCGAUAGAGUCAACGUCCUCAACCUCCAAUGCAUCCCACCACAUGAUGAUGCCUGAAGAGCCUUGGUUUUUUG
The “polymerase ribozyme fitness (log ratio)” value of the first is higher: 0.517 for the first, -3.21 for the second.

Compared with GACCAAUUUGCCCUCAGAGCUCGAGAACAUCUUCGGAUGCAGAGGAGGCAGGCUUCGGUGGCGCGAUAGCGCCAACGCCCUCAACCUCCAAUGCAUCCCACCACAUGAAGAUGCCUGAAGAGCCUUGGUUUUUUG, GACCAAUUCGCCCUCAGAGCUCGAGAACAUCUUCGGAUGCAGAGGAGGCAGUCUCCGGUGGCGCGAUAGCGCCAACGUCCUCAACCUCCAAUGCAUCCCACCACAUGAUGAUGCCUGAAGAGCCUUGGUUUUUUG is higher in “polymerase ribozyme fitness (log ratio)” value: -5.42 for the first, -0.0264 for the second.

GACCAAUCAGCCCUCAGAGCUCGAGACCAUCUUCGGAUGCAGAGGAGGCAGGCUUCGGUGGCGCGAUAGCGCCAACGUCCUCAACCUCCAAUGCAUCCCACCACAUGAUGAUGCCUCAAGAGCCUUGGUUUUUUG and GACCAAUUUGCCCUCAGAGCACGAGAACAUCUUCGGAUGCAGAGGAGGCCGGGUUCGGUAGCGCGAUAGCGCCAACGUCCUCAACCUUCAAUGCAUCCCACCACAUGAUGAUGCCUGAAGAGCCCUGGUUUUUUG are within 0.2 log units of each other in “polymerase ribozyme fitness (log ratio)” value: -5.71 for the first, -5.83 for the second.

Compared with GACCAAUCAGCCCUCAGAGCUCGGGAACAUCUUCGGAUGCAGAGGAGGCAGGCUUCGGUGGCGCGAUAGCGCCAACGUCCUCAACCUCCAAUGCAUCCCACCACAUGAUGAUGCCUGAAGAGCCUUGGUUUUUUG, GACCAAUUCGCCCUCAGAGCUCGAGAACAUCUUCGGAUGCAGAGGAGGCAGUCUCCGGCGGCGCGAUAGCGCCAACGUCCUCAACCUCCAAUGCAUCCCACCACAUGAUGAUGCCUGAAGAGCCUUGGUUUUUUG is higher in “polymerase ribozyme fitness (log ratio)” value: -0.725 for the first, 0.781 for the second.

First: GACCAAUCAGCCCUCAGAGCUCGUGAACAUCUUCGGAUGCAGAGGAGGCAGGCUUCGGUGGCGCGAUAGCACCAACGUCCUCAACCUCCAAUGCAUCCCACCACAUAAUGAUGCCUGAAGAGCCGUGGUUUUUUG
Second: GACCAAUUUGCCCACAGAGCUCGAGAACAUCUUCGGAUGCAGAGGAGGCAGGCUUCGGUGGCGCGAUAGCGCCAACGUCCUCAACCUCCAAUGCAUCCCACCACAUGAUGAUGCCUGAAGAGCCUUGGUUUUUUG
The “polymerase ribozyme fitness (log ratio)” value of the first is lower: -7.09 for the first, -0.398 for the second.

First: GACCAAUUUGCCCUCAGAGCACGAGAACAUCUUCGGAUGCAGAGGAGGCAGGCUUUGGUGGCGCGAUAGCGCCAACGUCCUCAACCUCCAAUGCAUCCCACCACAUGAUGAUGACUGAAGAGCCUUGAUUUUUUG
Second: GACCAAUUGGCCCUCAGAGCUCGAGAACAUCUUCGGAUGCAGAGGAGGCAGGCUUCGGUAGCGCGAUAGCGCCAACGUCCUCAACCUCCAAUGCAUCCCACCACAUGAUGAUGCCUGAAGAGCCUUGGUUUUUUG
The “polymerase ribozyme fitness (log ratio)” value of the first is lower: -2.5 for the first, -0.0864 for the second.

Going from GACCAAUUUGCCCUCAGAGCUCGAGAACAUCUUCGGAUGCAGAGGAGGCAGGCUCCGGUGGCGCGAUAGCGCAAAGGUCCUCAACCUCCAAUGCAUCCCACCACAUGAUGAUGCCUGAAGUGCCUUGGUUUUUUG to GACCAAUCAGCCCUCAGAGCUCGAGACCAUCUUCGGAUGCAGAGGAGGCAGGCUUCGGUGGCGCGAUAGCACCAACGUCCUCAACCUCCAAUGCAUCCCACCACAUGAUGAUGCCUCAAGAGCCUUGGUUUUUUG, the “polymerase ribozyme fitness (log ratio)” value falls from 1.02 to -6.31.

Going from GACCAAUUUGCCCUCAGAGCUCGAGAACAUCUUCGGAUGCAGAGGAGGCAGGCUUCGGUGGCGCGAUAGCGCCAACGUCCUCAACCUCCAAUGCAACCCACCACAUGAUGAUGCCUGAAGAGGCUUGGUUUUUUG to GACCAAUCAGCCCUCAGAGCUCGAGCACAUCUUCGGAUGUAGAGGAGGCAGGCUUCGGUGGCGCGAUAGCGCCAACGUCCUCAACCCCCAAUGCAUCCCACCACAUGAUGAUGCCUGAAGAGCCGUGGUUUUUUG, the “polymerase ribozyme fitness (log ratio)” value falls from 1.65 to -5.19.

Going from GACCAAUCAGCCCUCUGAGCUCGAGAACAUCUUCGGAUGCAGUGGAGGCAGGCUUCGGUGGCGCGAUAGCGCCAACGUCCUCAACCUCCAGUGCAUCCCACCACAUGAUGAUGCCUGAAGAGCCUUGGUUUUUUG to GACCAAUCAGCCCUCAGUGCUCGAGAACAUCUUCGGAUGCAGAGGAGGCAGGCUUCGGUGGCGUGAUAGCGCCAACGUCCUCAACCUCCAACGCAUCCCACCACAUGAUGAUGCCUGAAGAGCCUUGGUUUUUUG, the “polymerase ribozyme fitness (log ratio)” value falls from -0.987 to -3.

Going from GACCAAUUGGCACUCAGAGCUCGAGAACAUCUUCGGAUGCAGAGGAGGCAGGCUUCGAUGGCGCGAUAGCGCCAACGUCCUCAACCUCCAAUGCAUCCCACCACAUGAUGAUGCCUGAAGAGCCUUGGUUUUUUG to GACCAAUUUGCCCUCAGAGCUCGAGAACAUCUUCGGAGGCAGAGGAGGCAGGCUUCGGUGGCGCGAUAGCGACAACGUCCUCAACCUCCAAAGCAUCCCACCACAUGAUGAUGCGUGAAGAGCCUUGGUUUUUUG, the “polymerase ribozyme fitness (log ratio)” value falls from 0.43 to -5.69.

Going from GACCAAUUUGCCCUCAGAGCGCGAGAACAUCUUCGGAUGCAGAGGAGGCAGGCUUCGGUGGCGCGAUAGCGCCAACGUCCUCAACCUCCAAUGCAUCCCACCACAUGAUGAUGCCUGAAGAGCCUUGGUUUUUUG to GACCAAUCAGCCCUCGGAGCUCGAGAAUAUCUUCGGAUGCAGAGGAGGCAGGCGUCGGUGGCGCGAUAGCGCCAACGUCCUCAACCUCGAAUGCAUCCCACCACAUGAUGAUGCCUGAAGAGGCUUGGUUGUUUG, the “polymerase ribozyme fitness (log ratio)” value falls from -0.546 to -3.93.
